# Experimental data reported in patent publication US20190375846A1 (ULTRAHUMAN ONE, published 2019).
# Changes are numbered by the printed parent chain.
# B1: D-A6 IgG1 (antibody, V domains shown)
# VH: EVQLVESGGGLVQPGGSLRLSCAASGFSLSTSGYGVGWVRQAPGKGLEWLAHIWWDDDKYYVDSVKGRFTISRDNAKNSLYLQMNSLRAEDTAVYYCARTRQYFPFAYWGQGTLVTVSS
# VL: EIVLTQSPATLSLSPGERATLSCRASQSVGSNLAWYQQKPGQAPRLLIYSASYRYTGIPARFSGSGSGTDFTLTISSLEPEDFAVYYCQQYSTDPLTFGGGTKVEIK
# notes: Human IgG1
# B2: VH3/VL2 IgG1 (antibody, V domains shown)
# VH: B1 VH with Y34M, Q102R
# VL: B1 VL with S28N, S31T, L33V, T56S, S92N
# notes: Human IgG1; template of the mutagenesis library; also called G-VH3/VL2; VH3 family
# B3: G-G10 IgG1 (antibody, V domains shown)
# VH: B1 VH with S32F
# VL: B1 VL with S31T, S50Y, T93N
# notes: Human IgG1
# B4: I-C2 IgG1 (antibody, V domains shown)
# VH: B1 VH with Q102L
# VL: B1 VL with S28N, Y53N, T56S
# notes: Human IgG1
# B5: chimeric anti-GITR IgG1 mVH/mVL (6C8 murine v-domains) (antibody, V domains shown)
# VH: QVTLKESGPGILKPSQTLSLTCSFSGFSLSTSGMGVGWIRQPSGKGLEWLAHIWWDDDKYYNPSLKSQLTISKDTSRNQVFLKITSVDTADAATYYCARTRRYFPFAYWGQGTLVTVSS
# VL: DIVMTQSQKFMSTSVGDRVSVTCKASQNVGTNVAWYQQKPGQSPKALIYSASYRYSGVPDRFTGSGSGTDFTLTINNVHSEDLAEYFCQQYNTDPLTFGAGTKLEIK
# notes: Full-length human IgG1, kappa; also called GITR-mVH/mVL; chimeric IgG
# Molecular target: T1, hVCAM-1 (human, UniProt P19320)
# T1 construct: purified recombinant protein; Member of the panel m8; the axis also carries a separate label hVCAM-Fc (f6)
# T1 sequence (looked up): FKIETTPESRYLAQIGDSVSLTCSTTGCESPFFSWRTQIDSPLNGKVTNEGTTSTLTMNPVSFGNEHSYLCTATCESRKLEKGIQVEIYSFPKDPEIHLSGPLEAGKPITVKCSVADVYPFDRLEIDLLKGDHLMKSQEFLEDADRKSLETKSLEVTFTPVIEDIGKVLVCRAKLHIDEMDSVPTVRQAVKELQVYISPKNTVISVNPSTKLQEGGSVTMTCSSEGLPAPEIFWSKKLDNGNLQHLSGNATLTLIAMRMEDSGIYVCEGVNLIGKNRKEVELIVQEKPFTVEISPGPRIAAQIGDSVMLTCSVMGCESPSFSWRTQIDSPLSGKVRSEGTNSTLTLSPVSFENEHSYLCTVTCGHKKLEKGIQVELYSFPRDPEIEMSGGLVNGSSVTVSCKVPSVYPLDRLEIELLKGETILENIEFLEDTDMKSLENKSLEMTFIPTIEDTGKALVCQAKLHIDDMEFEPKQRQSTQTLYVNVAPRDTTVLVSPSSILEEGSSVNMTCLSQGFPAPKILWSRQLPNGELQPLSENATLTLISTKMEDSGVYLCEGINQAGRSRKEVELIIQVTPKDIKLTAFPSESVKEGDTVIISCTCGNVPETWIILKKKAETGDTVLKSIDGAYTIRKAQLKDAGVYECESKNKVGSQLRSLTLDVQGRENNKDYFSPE
# Assay: direct ELISA on coated protein, IgG at 10 µg/ml, OD 450 nm
# Method: (§1) Off-target homologue binding risk for mVH/mVL (FIG. 8A), VH3/VL2 (FIG. 8B) and lead engineered IgG clones G-G10 (FIG. 8C), I-C2 (FIG. 8D) and D-A6 (FIG. 8E) was examined by direct ELISA on GITR-Fc orthologs and a panel of 13 human TNFRSF and immunoglobulin superfamily proteins (as labelled on each X-axis). Binding to human, cyno and murine GITR-Fcs (h/c/mGITR-Fc) was performed at an IgG concentration of 1 μg/ml. Binding to all other proteins was performed at an IgG concentration of 10 μg/ml.
# (§2) Anti-GITR antibodies were tested for polyreactivity by ELISA. Purified, recombinant, target and non-target antigens were coated in 96-well Nunc maxisorp plates at 100 ng per well in carbonate buffer, at 4° C. overnight. Plates were then washed 3× with PBS, blocked with 1% BSA in PBS, then washed 3× with PBS-Tween20. A dilution series of primary antibodies was then applied, plates were washed 3× with PBS-Tween20 followed by application of goat anti-human kappa chain-HRP 1:4,000 secondary antibody. Wells were then washed 3× with PBS-Tween20 and 2× with PBS, 100 μl TMB peroxidase substrate was added per well, the was reaction stopped by adding 100 μl 2M H₂SO₄ and absorbances were read at 450 nm. Anti-GITR antibodies were also tested for binding specificity by flow cytometry. HuT78 cells were activated by incubation with anti-CD3/anti-CD28 beads for 3 days. Naïve cells were incubated in media alone. At the end of the incubation the cells were harvested and the beads removed from the activated cells using a magnet. Cells were incubated with viability dye and then stained with anti-GITR antibodies at 4° C. […] Binding of VH1/VI1 and D-A6 IgG1 proteins were detected by subsequent incubation with a PE labelled goat anti-human IgG. Cells were fixed with 4% PFA before being stored in PBS at 4° C. overnight. Cells were analysed the next day using a BD Fortessa flow cytometer running Diva software. Analysis was performed using FlowJo software.
row,Binder,binding result
1,B1,no binding (tested: 10 µg/ml)
2,B2,no binding (tested: 10 µg/ml)
3,B3,no binding (tested: 10 µg/ml)
4,B4,no binding (tested: 10 µg/ml)
5,B5,no binding (tested: 10 µg/ml)

# Molecular target: T2, hCD4 (human, UniProt P01730)
# T2 construct: purified recombinant protein; Member of the panel m8
# Assay: as above
# Method: as §1, §2
row,Binder,binding result
1,B1,no binding (tested: 10 µg/ml)
2,B2,no binding (tested: 10 µg/ml)
3,B3,no binding (tested: 10 µg/ml)
4,B4,no binding (tested: 10 µg/ml)
5,B5,no binding (tested: 10 µg/ml)

# Molecular target: T3, hICAM-1-Fc (human, UniProt P05362)
# T3 construct: recombinant Fc fusion; Member of the panel m8
# Assay: as above
# Method: as §1, §2
# T3 sequence (P05362 28-480 limits assumed): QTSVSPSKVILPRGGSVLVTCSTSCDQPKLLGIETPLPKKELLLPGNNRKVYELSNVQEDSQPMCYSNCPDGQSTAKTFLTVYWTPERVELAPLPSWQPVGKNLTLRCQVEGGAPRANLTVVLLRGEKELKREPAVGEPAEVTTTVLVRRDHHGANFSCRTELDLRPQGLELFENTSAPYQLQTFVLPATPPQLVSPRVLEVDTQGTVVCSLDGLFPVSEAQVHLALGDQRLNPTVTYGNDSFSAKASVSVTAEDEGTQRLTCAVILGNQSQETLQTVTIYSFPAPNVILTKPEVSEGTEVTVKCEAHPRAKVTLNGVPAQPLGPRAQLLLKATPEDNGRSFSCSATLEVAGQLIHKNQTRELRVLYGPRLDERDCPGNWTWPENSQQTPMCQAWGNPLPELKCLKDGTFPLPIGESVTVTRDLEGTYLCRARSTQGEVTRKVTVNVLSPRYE
row,Binder,binding result
1,B1,no binding (tested: 10 µg/ml)
2,B2,no binding (tested: 10 µg/ml)
3,B3,no binding (tested: 10 µg/ml)
4,B4,no binding (tested: 10 µg/ml)
5,B5,no binding (tested: 10 µg/ml)

# Molecular target: T4, hOX40-Fc
# T4 construct: Member of the panel m8; not shown: Fc part and any linker
# T4 chain: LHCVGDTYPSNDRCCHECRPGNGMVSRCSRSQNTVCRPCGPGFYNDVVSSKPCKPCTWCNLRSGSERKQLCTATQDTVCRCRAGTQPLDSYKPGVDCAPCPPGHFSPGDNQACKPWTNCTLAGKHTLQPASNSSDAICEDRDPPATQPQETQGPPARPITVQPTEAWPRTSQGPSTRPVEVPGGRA
# Assay: as above
# Method: as §1, §2
row,Binder,binding result
1,B1,no binding (tested: 10 µg/ml)
2,B2,no binding (tested: 10 µg/ml)
3,B3,no binding (tested: 10 µg/ml)
4,B4,no binding (tested: 10 µg/ml)
5,B5,no binding (tested: 10 µg/ml)

# Molecular target: T5, h4-1BB-Fc
# T5 construct: Member of the panel m8; not shown: Fc part and any linker
# Assay: as above
# Method: as §1, §2
# T5 sequence (chain, as listed by the source limits assumed): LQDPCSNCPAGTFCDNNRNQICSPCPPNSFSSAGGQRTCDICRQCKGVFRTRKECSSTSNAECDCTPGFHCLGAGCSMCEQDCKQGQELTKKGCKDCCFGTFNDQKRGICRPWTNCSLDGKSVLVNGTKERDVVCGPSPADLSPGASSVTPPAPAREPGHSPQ
row,Binder,binding result
1,B1,no binding (tested: 10 µg/ml)
2,B2,no binding (tested: 10 µg/ml)
3,B3,no binding (tested: 10 µg/ml)
4,B4,no binding (tested: 10 µg/ml)
5,B5,no binding (tested: 10 µg/ml)

# Molecular target: T6, hBAFFR-Fc (human, UniProt Q96RJ3)
# T6 construct: recombinant Fc fusion; Member of the panel m8
# Assay: as above
# Method: as §1, §2
# T6 sequence (Q96RJ3 7-71 limits assumed): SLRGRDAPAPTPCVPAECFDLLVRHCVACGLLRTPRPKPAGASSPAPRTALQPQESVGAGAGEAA
row,Binder,binding result
1,B1,no binding (tested: 10 µg/ml)
2,B2,no binding (tested: 10 µg/ml)
3,B3,no binding (tested: 10 µg/ml)
4,B4,no binding (tested: 10 µg/ml)
5,B5,no binding (tested: 10 µg/ml)

# Molecular target: T7, hEpCAM-Fc (human, UniProt P16422)
# T7 construct: recombinant Fc fusion; Member of the panel m8
# T7 sequence (fusion chain, looked up): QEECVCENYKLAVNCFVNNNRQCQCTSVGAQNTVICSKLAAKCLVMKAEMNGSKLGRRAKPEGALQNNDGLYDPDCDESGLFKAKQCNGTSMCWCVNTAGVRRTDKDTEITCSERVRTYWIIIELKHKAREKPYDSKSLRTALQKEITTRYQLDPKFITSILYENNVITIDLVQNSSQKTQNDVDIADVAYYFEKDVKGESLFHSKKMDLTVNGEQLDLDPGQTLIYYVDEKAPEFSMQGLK
# Assay: as above
# Method: as §1, §2
row,Binder,binding result
1,B1,no binding (tested: 10 µg/ml)
2,B2,no binding (tested: 10 µg/ml)
3,B3,no binding (tested: 10 µg/ml)
4,B4,no binding (tested: 10 µg/ml)
5,B5,no binding (tested: 10 µg/ml)

# Molecular target: T8, hLTBR-Fc (human, UniProt P36941)
# T8 construct: recombinant Fc fusion; Member of the panel m8
# Assay: as above
# Method: as §1, §2
# T8 sequence (P36941 28-227 limits assumed): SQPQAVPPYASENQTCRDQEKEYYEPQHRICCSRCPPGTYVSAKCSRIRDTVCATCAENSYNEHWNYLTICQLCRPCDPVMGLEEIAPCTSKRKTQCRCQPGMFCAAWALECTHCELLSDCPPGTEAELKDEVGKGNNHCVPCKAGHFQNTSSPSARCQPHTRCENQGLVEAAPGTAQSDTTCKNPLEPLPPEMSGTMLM
row,Binder,binding result
1,B1,no binding (tested: 10 µg/ml)
2,B2,no binding (tested: 10 µg/ml)
3,B3,no binding (tested: 10 µg/ml)
4,B4,no binding (tested: 10 µg/ml)
5,B5,no binding (tested: 10 µg/ml)

# Molecular target: T9, cynomolgus monkey GITR at the cell surface (cynomolgus monkey)
# T9 construct: whole, on cells; also called cyno GITR+ cells
# Assay: flow cytometry, cyno GITR-transfected murine blastoma cells, 10,000-13.7 ng/ml
# Method: Concentration-dependent binding to GITR at the cell surface was analysed using flow cytometry.
row,Binder,concentration at maximum MFI [ng/mL]
1,B1,~1110
2,B2,~1110
3,B3,~1110
4,B4,~1110
5,B5,~1110
